Consider ten substances from PMC11036296.

The experiment deals with Patched 1 (Ptch1) receptor (mouse (endogenous in C3H10T1/2)) (UniProt Q61115).
Chain of UniProt Q61115 (Q61115 whole entry): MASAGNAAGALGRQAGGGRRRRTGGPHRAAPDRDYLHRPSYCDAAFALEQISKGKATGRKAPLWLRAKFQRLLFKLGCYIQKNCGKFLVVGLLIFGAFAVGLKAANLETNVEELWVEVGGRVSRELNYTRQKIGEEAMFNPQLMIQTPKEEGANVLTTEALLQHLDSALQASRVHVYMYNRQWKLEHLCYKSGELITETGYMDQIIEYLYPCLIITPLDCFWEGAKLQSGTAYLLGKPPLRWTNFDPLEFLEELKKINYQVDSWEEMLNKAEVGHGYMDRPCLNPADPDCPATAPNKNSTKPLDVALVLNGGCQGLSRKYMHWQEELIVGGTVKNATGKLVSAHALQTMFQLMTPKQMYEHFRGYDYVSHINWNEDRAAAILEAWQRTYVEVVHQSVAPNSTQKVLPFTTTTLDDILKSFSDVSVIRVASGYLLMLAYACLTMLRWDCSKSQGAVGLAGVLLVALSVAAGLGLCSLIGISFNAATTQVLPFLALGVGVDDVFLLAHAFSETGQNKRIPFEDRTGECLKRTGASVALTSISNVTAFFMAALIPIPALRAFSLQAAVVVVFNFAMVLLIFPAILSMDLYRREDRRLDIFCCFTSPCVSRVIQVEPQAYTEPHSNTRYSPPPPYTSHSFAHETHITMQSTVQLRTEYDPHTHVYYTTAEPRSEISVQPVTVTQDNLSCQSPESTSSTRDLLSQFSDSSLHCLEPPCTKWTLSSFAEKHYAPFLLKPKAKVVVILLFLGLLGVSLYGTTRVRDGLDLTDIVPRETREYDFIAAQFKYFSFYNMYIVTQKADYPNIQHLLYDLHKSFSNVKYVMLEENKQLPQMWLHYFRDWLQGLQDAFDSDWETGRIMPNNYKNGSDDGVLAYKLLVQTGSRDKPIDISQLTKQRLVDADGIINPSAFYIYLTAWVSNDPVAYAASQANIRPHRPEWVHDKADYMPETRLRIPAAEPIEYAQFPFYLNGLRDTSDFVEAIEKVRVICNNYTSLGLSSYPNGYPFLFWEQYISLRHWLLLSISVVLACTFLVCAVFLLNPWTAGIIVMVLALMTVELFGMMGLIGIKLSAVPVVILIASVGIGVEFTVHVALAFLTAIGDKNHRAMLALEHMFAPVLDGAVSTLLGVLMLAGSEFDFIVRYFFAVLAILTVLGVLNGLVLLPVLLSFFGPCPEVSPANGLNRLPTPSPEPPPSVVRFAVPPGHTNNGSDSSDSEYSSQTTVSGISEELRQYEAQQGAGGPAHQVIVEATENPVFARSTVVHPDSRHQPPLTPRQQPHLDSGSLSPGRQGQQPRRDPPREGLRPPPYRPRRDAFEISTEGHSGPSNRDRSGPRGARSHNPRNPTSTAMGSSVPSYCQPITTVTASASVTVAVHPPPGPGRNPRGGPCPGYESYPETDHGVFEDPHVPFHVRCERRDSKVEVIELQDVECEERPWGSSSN

“Shh^C, soluble depalmitoylated (N-terminally processed), C-cholesteroylated Sonic hedgehog released in the presence of 10% serum (ligand)” gave an Alp1 activity of C3H10T1/2 cells (differentiation into osteoblasts) of 1.5 au and an Alp1 activity of C3H10T1/2 cells (differentiation into osteoblasts), with the Shh-neutralising antibody 5E1 (1 µg/mL) of 0.26 au. In turn, “^C25S;Δ26–31Shh^C (from UniProt Q62226 25-198) (ligand)” yielded an Alp1 activity of C3H10T1/2 cells (differentiation into osteoblasts) of 1.41 au. For “^C25S;Δ26–32Shh^C (from UniProt Q62226 25-198) (ligand)”, the Alp1 activity of C3H10T1/2 cells (differentiation into osteoblasts) came out at 1.26 au. Same read-out and setting: with “^C25S;Δ26–33Shh^C (from UniProt Q62226 25-198) (ligand)” the figure was 1.65 au; with “^C25S;Δ26–34Shh^C (from UniProt Q62226 25-198) (ligand)”, 0.7 au.

“^C25S;Δ26–35Shh^C (from UniProt Q62226 25-198) (ligand)” displayed an Alp1 activity of C3H10T1/2 cells (differentiation into osteoblasts) of 0.38 au. As to “^C25S;Δ26–36Shh^C (from UniProt Q62226 25-198) (ligand)”, the Alp1 activity of C3H10T1/2 cells (differentiation into osteoblasts) is 0.39 au.

In turn, “^C25S;Δ26–37Shh^C (from UniProt Q62226 25-198) (ligand)” came in with an Alp1 activity of C3H10T1/2 cells (differentiation into osteoblasts) of 0.46 au. Regarding “^C25S;Δ26–38Shh^C (from UniProt Q62226 25-198) (ligand)”, the Alp1 activity of C3H10T1/2 cells (differentiation into osteoblasts) came out at 0.36 au. “^C25SShh^C, unpalmitoylated cholesteroylated soluble Shh (from UniProt Q62226 25-198) (ligand)”: the Alp1 activity of C3H10T1/2 cells (differentiation into osteoblasts) came out at 1.71 au and the Alp1 activity of C3H10T1/2 cells (differentiation into osteoblasts), with the Shh-neutralising antibody 5E1 (1 µg/mL) is 0.21 au.
